The source of these data is patent US20190330298A1 (WORG PHARMACEUTICALS ZHEJIANG, published 2019).

The target of this assay is T1, HLA-DRB1*0301 molecule (HLA-DR3 MHC class II of DR3tg mice) (human).
T1 construct: whole, on cells; MHC class II expressed by DR3tg mice (no mouse MHC II); the responding T cells came from DR3 mice; also called MHC II
Put plainly: in vivo presentation test in DR3tg mice; binding inferred from IFN-γ response of peptide-specific T cells to isolated CD11c+ cells. Here is the method: DR3tg or DR2tg mice were injected with 100 μg of peptide in 100 μl PBS subcutaneously (s.c.) in the flank. Control animals received a s.c. injection of 100 μl PBS. After 2 hours, spleens were harvested and single-cell suspensions were made. CD11c⁺ cells were positively selected using CD11c microbeads according to the manufacturer's instructions (Miltenyi Biotec, Bergisch Gladbach, Germany). Average purities of >92% were reached. 5×10⁴ CD11c⁺ cells were co-cultured with 5×10⁴ CD4⁺ cells in round bottom 96-well plates in X-vivo 15 medium (supplemented with 2 mM L-glutamine, 50 U/mL penicillin and 50 U/mL streptomycin; Lonza). […] After 48 hours, supernatant of these co-cultures was collected and CD4⁺ T cell activation was analysed by IFN-γ ELISA (R&D Systems, Abingdon, UK). In a parallel experiment, CD4⁺ T cell responses towards peptide added in vitro were assessed to make sure the T cells recognize the peptides presented by the CD11c⁺ cells.
In FIG. 15 the ability of HIP-115NE3 (insoluble peptide) and that of its soluble version, HIP-115NE3-KKK, to be picked up and presented by MHC II molecules present on dendritic cells (DC) upon sc. injection in an in vivo setting (DR3tg mice) was compared. […] T cell activity response was measured by production of IFN-γ. […]

B1: HIP-115NE3-KKK (peptide)
peptide: H-KKKVIFKKISRDKSVTIYLGKKK-NH2
notes: Synthetic; HIP-115NE3 with KKK at both ends
Turning to B1, the binding result was “binds”.
